Laboratory results taken from PMC13125535, “Reprogramming of bacterial virulence by lysine acetylation” (Nature Communications, 2026).

B1: SnCE1_(104-310) C256A (non-acetylated) (domain or fragment)
chain: GEKDRFLIDERNWLNNQHLGLYSLFLQEKYGPEVFFPFGGWTYVFPGLTDRFFKEDSYHILDVRAKRIKSFLDYKSITYPLFIGGNHWGLLFIDREKRTVEYYDSKINYGNYEEGLQGIKDVAAKFTKYDPGEKPYTYLEKIKKKLQPDGYQAGPWALYFLEHRLENPEVDFNQLDLNEAQNMIAKYRFAVRDKLLELQKNGNTLYC
notes: SnCE1, Simkania negevensis, UniProt F8L4W9, residues 104-310; Not acetylated; no proteolytic processing seen for this truncated protein; not shown: GST, N-terminal, cleaved
B2: SnCE1 C256A AcK209 (domain or fragment)
chain: SLTSKAICRYSLSSVESIQPKTQVKAIEPKGEKDRFLIDERNWLNNQHLGLYSLFLQEKYGPEVFFPFGGWTYVFPGLTDRFFKEDSYHILDVRAKRIKSFLDYKSITYPLFIGGNHWGLLFIDREKRTVEYYDSKINYGNYEEGLQGIKDVAAKFTKYDPGEKPYTYLEKIKKKLQPDGYQAGPWALYFLEHRLENPEVDFNQLDLNEAQNMIAKYRFAVRDKLLELQKNGNTLYC
modifications: acetyl-lysine at 209
notes: SnCE1, Simkania negevensis, UniProt F8L4W9

Target: the molecule itself
Test: SEC; analytical SEC on a calibrated Superdex 200 10/300 GL column; 25 mM Tris-HCl pH 7.5, 150 mM NaCl, 2 mM β-mercaptoethanol; 1.0–2.0 mg/mL protein, 100 µL applied; tetramer to monomers

Row | Protein | stoichiometry N
1 | B1 | 4
2 | B2 | 4
